Target: the molecule itself
Assay: crystal structure; RsaA 30 mg/mL with 5 mM CaCl2; 0.07 M KSCN, 24% (w/v) PEG 8000, 0.075 M TAPS/NaOH pH 8.5, 19°C; stacked S-layer sheets in three-dimensional crystals; long-wavelength anomalous diffraction, molecular replacement with PDB 5N8P

B1: RsaA, S-layer protein of Caulobacter crescentus (wild type, full length) (natural protein, UniProt A0A0H3C8J1 1-1026, looked up)
chain: MAYTTAQLVTAYTNANLGKAPDAATTLTLDAYATQTQTGGLSDAAALTNTLKLVNSTTAVAIQTYQFFTGVAPSAAGLDFLVDSTTNTNDLNDAYYSKFAQENRFINFSINLATGAGAGATAFAAAYTGVSYAQTVATAYDKIIGNAVATAAGVDVAAAVAFLSRQANIDYLTAFVRANTPFTAAADIDLAVKAALIGTILNAATVSGIGGYATATAAMINDLSDGALSTDNAAGVNLFTAYPSSGVSGSTLSLTTGTDTLTGTANNDTFVAGEVAGAATLTVGDTLSGGAGTDVLNWVQAAAVTALPTGVTISGIETMNVTSGAAITLNTSSGVTGLTALNTNTSGAAQTVTAGAGQNLTATTAAQAANNVAVDGGANVTVASTGVTSGTTTVGANSAASGTVSVSVANSSTTTTGAIAVTGGTAVTVAQTAGNAVNTTLTQADVTVTGNSSTTAVTVTQTAAATAGATVAGRVNGAVTITDSAAASATTAGKIATVTLGSFGAATIDSSALTTVNLSGTGTSLGIGRGALTATPTANTLTLNVNGLTTTGAITDSEAAADDGFTTINIAGSTASSTIASLVAADATTLNISGDARVTITSHTAAALTGITVTNSVGATLGAELATGLVFTGGAGADSILLGATTKAIVMGAGDDTVTVSSATLGAGGSVNGGDGTDVLVANVNGSSFSADPAFGGFETLRVAGAAAQGSHNANGFTALQLGATAGATTFTNVAVNVGLTVLAAPTGTTTVTLANATGTSDVFNLTLSSSAALAAGTVALAGVETVNIAATDTNTTAHVDTLTLQATSAKSIVVTGNAGLNLTNTGNTAVTSFDASAVTGTGSAVTFVSANTTVGEVVTIRGGAGADSLTGSATANDTIIGGAGADTLVYTGGTDTFTGGTGADIFDINAIGTSTAFVTITDAAVGDKLDLVGISTNGAIADGAFGAAVTLGAAATLAQYLDAAAAGDGSGTSVAKWFQFGGDTYVVVDSSAGATFVSGADAVIKLTGLVTLTTSAFATEVLTLA
notes: RsaA, S-layer protein of Caulobacter crescentus CB15N (NA1000), 1,026 amino acid residues; RsaANTD is residues 1-250 and RsaACTD residues 251-1,026; Full-length protein went into crystallisation; also called SLP; wild-type RsaA; source: purified from C. crescentus CB15N (NA1000) cells by low pH exposure (HiTrap SP flow-through, HiTrap Q)
B1 was tested, and the “stoichiometry N” value was 6.

Reference: article PMC8828063, “High-resolution mapping of metal ions reveals principles of surface layer assembly in Caulobacter crescentus cells” (Structure(London, England:1993), 2022)
